According to paper PMC5052687:

Molecular target: human CD36 ectodomain (residues 35-439), C-terminal 8xHis and biotinylated BAP tag (human) (UniProt P16671)
Assay: SPR; biotinylated CD36 (wild type or F153A) immobilised on a CAPture chip to ~700 RU; CIDRα domains as analytes, two-fold dilutions from 400 nM (Supplementary Figure 10: 400 nM only), 240 s injection, 300 s dissociation; 25 °C, 20 mM HEPES pH 7.5, 0.15 M NaCl, 0.005% Tween20; affinities from equilibrium binding, one site-binding model

Sequence of human CD36 ectodomain (residues 35-439), C-terminal 8xHis and biotinylated BAP tag (human) (P16671 35-439): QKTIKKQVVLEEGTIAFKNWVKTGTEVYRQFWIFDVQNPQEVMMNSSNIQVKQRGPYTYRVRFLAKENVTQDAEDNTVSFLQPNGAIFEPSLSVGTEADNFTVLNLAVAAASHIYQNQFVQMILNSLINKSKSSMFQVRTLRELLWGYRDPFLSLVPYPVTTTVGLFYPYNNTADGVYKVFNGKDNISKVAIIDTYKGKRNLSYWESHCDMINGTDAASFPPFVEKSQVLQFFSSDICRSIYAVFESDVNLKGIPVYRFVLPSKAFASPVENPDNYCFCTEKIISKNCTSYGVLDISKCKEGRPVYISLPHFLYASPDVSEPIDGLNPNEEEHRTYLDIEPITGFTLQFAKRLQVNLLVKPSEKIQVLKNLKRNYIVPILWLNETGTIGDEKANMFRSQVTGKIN

“IT4var26 CIDRα3.3 domain (domain or fragment)” was tested, and the Kd was 9.6 nM.
